# T1: TNFR1 (Homo sapiens, UniProt P19438)
# T1 chain: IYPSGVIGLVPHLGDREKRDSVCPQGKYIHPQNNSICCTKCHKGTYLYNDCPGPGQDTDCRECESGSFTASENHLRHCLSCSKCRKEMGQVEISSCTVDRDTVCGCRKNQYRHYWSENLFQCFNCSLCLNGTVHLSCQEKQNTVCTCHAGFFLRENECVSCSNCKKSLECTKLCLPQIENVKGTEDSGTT
# Biological target: T1, TNFR1
# Assay: yeast display SC50
row,apparent Kd (screen) [nM],Binder
1,0.79,A28S (designed binder) MTLQELLREEALRRAEAEAFRYALELLSEKFPEQKEYLLDLAEEIESQIRSLSGVDVEDVRKFLDKEWAWVKELLAEHPAELAEVEAARAARLAELRAEVEAKVAA
2,0.956,F31S (designed binder) MTLQELLREEALRRAEAEAFRYALELLAEKSPEQKEYLLDLAEEIESQIRSLSGVDVEDVRKFLDKEWAWVKELLAEHPAELAEVEAARAARLAELRAEVEAKVAA
3,12.5,F63Y (designed binder) MTLQELLREEALRRAEAEAFRYALELLAEKFPEQKEYLLDLAEEIESQIRSLSGVDVEDVRKYLDKEWAWVKELLAEHPAELAEVEAARAARLAELRAEVEAKVAA
4,7.78,E10N (designed binder) MTLQELLRENALRRAEAEAFRYALELLAEKFPEQKEYLLDLAEEIESQIRSLSGVDVEDVRKFLDKEWAWVKELLAEHPAELAEVEAARAARLAELRAEVEAKVAA
5,0.593,M1F (designed binder) FTLQELLREEALRRAEAEAFRYALELLAEKFPEQKEYLLDLAEEIESQIRSLSGVDVEDVRKFLDKEWAWVKELLAEHPAELAEVEAARAARLAELRAEVEAKVAA
6,0.869,F31G (designed binder) MTLQELLREEALRRAEAEAFRYALELLAEKGPEQKEYLLDLAEEIESQIRSLSGVDVEDVRKFLDKEWAWVKELLAEHPAELAEVEAARAARLAELRAEVEAKVAA
7,0.49,A42P (designed binder) MTLQELLREEALRRAEAEAFRYALELLAEKFPEQKEYLLDLPEEIESQIRSLSGVDVEDVRKFLDKEWAWVKELLAEHPAELAEVEAARAARLAELRAEVEAKVAA
8,0.49,A88Q (designed binder) MTLQELLREEALRRAEAEAFRYALELLAEKFPEQKEYLLDLAEEIESQIRSLSGVDVEDVRKFLDKEWAWVKELLAEHPAELAEVEAQRAARLAELRAEVEAKVAA
9,0.539,E29S (designed binder) MTLQELLREEALRRAEAEAFRYALELLASKFPEQKEYLLDLAEEIESQIRSLSGVDVEDVRKFLDKEWAWVKELLAEHPAELAEVEAARAARLAELRAEVEAKVAA
10,1.4,L39M (designed binder) MTLQELLREEALRRAEAEAFRYALELLAEKFPEQKEYLMDLAEEIESQIRSLSGVDVEDVRKFLDKEWAWVKELLAEHPAELAEVEAARAARLAELRAEVEAKVAA
11,0.539,E99Q (designed binder) MTLQELLREEALRRAEAEAFRYALELLAEKFPEQKEYLLDLAEEIESQIRSLSGVDVEDVRKFLDKEWAWVKELLAEHPAELAEVEAARAARLAELRAQVEAKVAA
12,0.718,L82Y (designed binder) MTLQELLREEALRRAEAEAFRYALELLAEKFPEQKEYLLDLAEEIESQIRSLSGVDVEDVRKFLDKEWAWVKELLAEHPAEYAEVEAARAARLAELRAEVEAKVAA
13,0.49,E25R (designed binder) MTLQELLREEALRRAEAEAFRYALRLLAEKFPEQKEYLLDLAEEIESQIRSLSGVDVEDVRKFLDKEWAWVKELLAEHPAELAEVEAARAARLAELRAEVEAKVAA
14,0.653,L24I (designed binder) MTLQELLREEALRRAEAEAFRYAIELLAEKFPEQKEYLLDLAEEIESQIRSLSGVDVEDVRKFLDKEWAWVKELLAEHPAELAEVEAARAARLAELRAEVEAKVAA
15,0.593,R14N (designed binder) MTLQELLREEALRNAEAEAFRYALELLAEKFPEQKEYLLDLAEEIESQIRSLSGVDVEDVRKFLDKEWAWVKELLAEHPAELAEVEAARAARLAELRAEVEAKVAA
16,0.956,E99M (designed binder) MTLQELLREEALRRAEAEAFRYALELLAEKFPEQKEYLLDLAEEIESQIRSLSGVDVEDVRKFLDKEWAWVKELLAEHPAELAEVEAARAARLAELRAMVEAKVAA
17,0.869,A105I (designed binder) MTLQELLREEALRRAEAEAFRYALELLAEKFPEQKEYLLDLAEEIESQIRSLSGVDVEDVRKFLDKEWAWVKELLAEHPAELAEVEAARAARLAELRAEVEAKVIA
18,1.86,E67T (designed binder) MTLQELLREEALRRAEAEAFRYALELLAEKFPEQKEYLLDLAEEIESQIRSLSGVDVEDVRKFLDKTWAWVKELLAEHPAELAEVEAARAARLAELRAEVEAKVAA

row,apparent Kd (screen) [nM],Binder
1,0.653,A69N (designed binder) MTLQELLREEALRRAEAEAFRYALELLAEKFPEQKEYLLDLAEEIESQIRSLSGVDVEDVRKFLDKEWNWVKELLAEHPAELAEVEAARAARLAELRAEVEAKVAA
2,1.4,E67N (designed binder) MTLQELLREEALRRAEAEAFRYALELLAEKFPEQKEYLLDLAEEIESQIRSLSGVDVEDVRKFLDKNWAWVKELLAEHPAELAEVEAARAARLAELRAEVEAKVAA
3,0.446,E101Y (designed binder) MTLQELLREEALRRAEAEAFRYALELLAEKFPEQKEYLLDLAEEIESQIRSLSGVDVEDVRKFLDKEWAWVKELLAEHPAELAEVEAARAARLAELRAEVYAKVAA
4,0.869,K66I (designed binder) MTLQELLREEALRRAEAEAFRYALELLAEKFPEQKEYLLDLAEEIESQIRSLSGVDVEDVRKFLDIEWAWVKELLAEHPAELAEVEAARAARLAELRAEVEAKVAA
5,2.73,L96A (designed binder) MTLQELLREEALRRAEAEAFRYALELLAEKFPEQKEYLLDLAEEIESQIRSLSGVDVEDVRKFLDKEWAWVKELLAEHPAELAEVEAARAARLAEARAEVEAKVAA
6,0.718,V57F (designed binder) MTLQELLREEALRRAEAEAFRYALELLAEKFPEQKEYLLDLAEEIESQIRSLSGVDFEDVRKFLDKEWAWVKELLAEHPAELAEVEAARAARLAELRAEVEAKVAA
7,0.539,H78A (designed binder) MTLQELLREEALRRAEAEAFRYALELLAEKFPEQKEYLLDLAEEIESQIRSLSGVDVEDVRKFLDKEWAWVKELLAEAPAELAEVEAARAARLAELRAEVEAKVAA
8,0.539,W68F (designed binder) MTLQELLREEALRRAEAEAFRYALELLAEKFPEQKEYLLDLAEEIESQIRSLSGVDVEDVRKFLDKEFAWVKELLAEHPAELAEVEAARAARLAELRAEVEAKVAA
9,0.593,R97D (designed binder) MTLQELLREEALRRAEAEAFRYALELLAEKFPEQKEYLLDLAEEIESQIRSLSGVDVEDVRKFLDKEWAWVKELLAEHPAELAEVEAARAARLAELDAEVEAKVAA
10,16.7,Y37D (designed binder) MTLQELLREEALRRAEAEAFRYALELLAEKFPEQKEDLLDLAEEIESQIRSLSGVDVEDVRKFLDKEWAWVKELLAEHPAELAEVEAARAARLAELRAEVEAKVAA
11,0.718,K103A (designed binder) MTLQELLREEALRRAEAEAFRYALELLAEKFPEQKEYLLDLAEEIESQIRSLSGVDVEDVRKFLDKEWAWVKELLAEHPAELAEVEAARAARLAELRAEVEAAVAA
12,2.25,A28C (designed binder) MTLQELLREEALRRAEAEAFRYALELLCEKFPEQKEYLLDLAEEIESQIRSLSGVDVEDVRKFLDKEWAWVKELLAEHPAELAEVEAARAARLAELRAEVEAKVAA
13,0.718,P79A (designed binder) MTLQELLREEALRRAEAEAFRYALELLAEKFPEQKEYLLDLAEEIESQIRSLSGVDVEDVRKFLDKEWAWVKELLAEHAAELAEVEAARAARLAELRAEVEAKVAA
14,1.05,V85E (designed binder) MTLQELLREEALRRAEAEAFRYALELLAEKFPEQKEYLLDLAEEIESQIRSLSGVDVEDVRKFLDKEWAWVKELLAEHPAELAEEEAARAARLAELRAEVEAKVAA
15,0.539,D59R (designed binder) MTLQELLREEALRRAEAEAFRYALELLAEKFPEQKEYLLDLAEEIESQIRSLSGVDVERVRKFLDKEWAWVKELLAEHPAELAEVEAARAARLAELRAEVEAKVAA
16,0.405,A69C (designed binder) MTLQELLREEALRRAEAEAFRYALELLAEKFPEQKEYLLDLAEEIESQIRSLSGVDVEDVRKFLDKEWCWVKELLAEHPAELAEVEAARAARLAELRAEVEAKVAA
17,0.593,A42I (designed binder) MTLQELLREEALRRAEAEAFRYALELLAEKFPEQKEYLLDLIEEIESQIRSLSGVDVEDVRKFLDKEWAWVKELLAEHPAELAEVEAARAARLAELRAEVEAKVAA
